From article PMC9170038, “Crowdsourced RNA design discovers diverse, reversible, efficient, self-contained molecular switches” come the findings set out here.

B1: Eterna 7697814 (Same State - Tryptophan B) (ssRNA)
RNA: AGUAGUUGGACGGCCGCCACUGGAACAGCUUUGCCAAAGGCAGAGCACUAGAGUGAUGUUCUAGCUAGGACCGGGUCCAACUACA
B2: Eterna 7710185 (Exclusion - Tryptophan A) (ssRNA)
RNA: AGCUCGCAUCCUCUAGCGUCAAAGACGCCUCGAGGACCGGUACGGCCGCCACUCGAGAUGAGGAUCACCCAUCUCAAAGCGAGCA
B3: Eterna 7632613 (Same State - Theophylline B) (ssRNA)
RNA: GGGUGUGAUCCGGAUACCAGCGAACAUGAGGAUCACCCAUGUGACCUGAGAUCGGCUCUACGCCCUUGGCAGCCGCGGUCGCAGG
B4: Eterna 7770355 (Exclusion - Tryptophan A) (ssRNA)
RNA: GGUGUUGUUUGUGCUGUUUUCCUCGUUCCUCGAGGACCGGUACGGCCGCCACUCGAGUGAUGUUUGGGUAGCGAUCCUUGUUAGU
B5: Eterna 6428636 (Exclusion NG 3) (ssRNA)
RNA: AGGUAUCCUGAGAAAUUUCUCCACAUGAGGAUCACCCAUGUAGAGGAUAUCGACGCUGUGCGGUUCGAGAAGGCUACACUAAAA
B6: Eterna 6121278 (Same State NG 1) (ssRNA)
RNA: UCACUCAAGUUAGGAUAUGGAUCGGAAAACGAUCCAGAAGGAACAUGAAAACAUGAGCAUCAGCCAUGUUCCAGAAACGAGUGA
B7: Eterna 6121478 (Same State NG 1) (ssRNA)
RNA: GCACUCAAGUUAGGAUAUGGAUCGGAAACCGAUCCAGAAGGAACACAAUAACAUGAGCAUCAGCCGUGUUCCAGAAACGAGUGC
B8: Eterna 7710586 (Same State - Theophylline B) (ssRNA)
RNA: UCUGGUAUAUCUGAUACCAGAGUAUAGUAUCAAUUGCAUAUCCGCAGUGAUGUUGCGGAACUCCCUUGGCAGCAGAUCUAUCUCU
B9: Eterna 7730540 (Same State - FMN A) (ssRNA)
RNA: AGCGAGUGAUGUUCGCUGAUCAUGUGAAGUUAGGAUAUAUACUUGCAUAGAAGGAACUAUUACAUGACAUUAGAGGCAGUAGUUC
B10: Eterna 5503477 (Same State 1) (ssRNA)
RNA: AAGAAACAUGAGGAUCACCCAUGUAAGAUAAACACAGGAUAUGCGAAUAAAAUAAAUAAAGCAGAAGGGUGAAGAA
B11: Eterna 6429242 (Inverted Exclusion NG 1) (ssRNA)
RNA: UCCGCAUCUGAGAAGGGAUCUCCGCGGAAGGGAUCAGGAUAUCGGACAUGAGGAUCACCCAUGUGCCGUUAAAGGACACCUGGU
B12: Eterna 7692142 (Exclusion - FMN A) (ssRNA)
RNA: UUAUAUACGAGUGAUGUUCGUUAUUUAUCAGAGGAUAUGCUUAAAUGCAGAAGGCUGUUUUUCUAUUUGAUAUUAAAUUUUAUAA
B13: Eterna 7755228 (Same State - Theophylline A) (ssRNA)
RNA: AAAAUAAAUCAGUGAUGUUGGUAUCCGGAUACCAGCGAUAAUCAUCGCCCUUGGCAGCCGCGGACGUACAAAAUAAGUACGUCCU
B14: Eterna 7692481 (Exclusion - Theophylline B) (ssRNA)
RNA: UUAGUUGAAAGUGAUACCAGACGAGUGAAGGGAAGAAAUUAAGUUGGAGUGAUGUUCCGCGUCCCUUGGCAGCACUUUGUAAUUU
B15: Eterna 5973727 (Sensor, turn-off variant 1) (ssRNA)
RNA: CCGUGCACGCUGCGCUCCUACAUGAGGAUCACCCAUGUGGUCCGGUGGCGUGGGUCGCCGGACUUGGCUCGUCUUGU
B16: Eterna 9265 (Exclusion 1) (ssRNA)
RNA: CCGUCACAUGAGGAUCACCCAUGUCAGGAUAUCUAUCAUAGCAUCGAAAGAUGCGGGUAGAGAAGGGACUAUCC
B17: Eterna 6398795 (Exclusion NG 1) (ssRNA)
RNA: CCUGCACCUCAAGGAUAUCCAGUCGAAACGACUGGAGAAGGUGAGGAUCACCCAUCUAGCCUGACGAAAGUCAGGCAUGCAGGA
B18: Eterna 7710481 (Same State - Theophylline B) (ssRNA)
RNA: GGAGGUUGGUGCGAUACCAGACCAGCAGUGAUGUUGCGCCAAAGUGAGUGAUGUUCACCGGUCCCUUGGCAGCGCAUUCCUUUAG
B19: Eterna 6443507 (Inverted Exclusion NG 1) (ssRNA)
RNA: CGAACCAUGUAGAAGGCUGUCUUAAAAUAGGACAGAGGAUAUACAUGAGGAUCACCCAUGUACUCCUUUAAAAGGUUCGAAAUA
B20: Eterna 6407693 (Inverted Exclusion NG 2) (ssRNA)
RNA: UCAGGCUUCGAGAAGGACAUGAAUCGUAGCAUUGCUACGAUGAAUUAUACAUGAGGAUCACCCAUGUAGGAUAUCGGAGUCUGC
B21: Eterna 7696031 (Exclusion - Tryptophan B) (ssRNA)
RNA: UGAUACCAGACGGCCGCCACUACACCAGUCAAAGACUGGAUGUGAAAUUCGACCAGUGAUGUUGGUAGGACCGGGUCUGGUAUCU
B22: Eterna 15969 (Sensor v3, turn-off variant 2) (ssRNA)
RNA: AAGUACCGUCACGAUAGUGAUGGUACAACAAGCAAAUGUACAUGAGGAUCACCCAUGUCCUCUUUUGCUCGUCUUGU
B23: Eterna 7734801 (Same State - FMN B) (ssRNA)
RNA: UGUACCGAGUCAGGAUAUGUCGUCGAAAGACGAAUCCUAGUGAUGUUAGGGAUCUGCGAAAGCAGUGCAGAAGGGACUUGGUACU
B24: Eterna 12594 (Exclusion 3) (ssRNA)
RNA: AACGAUCUAGGAUAUACAUGAGGAUCACCCAUGUAAGAGCCCAAACCAGGCUCCCUCUGUAGAAGGAGGUCAAA
B25: Eterna 7687503 (Exclusion - Theophylline A) (ssRNA)
RNA: UGUAUGUGUCAGCGAGUGAUGUUCGACGAUACCAGACUCGAUAGAGUCCCUUGGCAGCGUAAUGCAUGCCAAACUGGCACAUACU
B26: Eterna 7684764 (Exclusion - Tryptophan B) (ssRNA)
RNA: AAUAAAAUCACGGCCGCCACUGAUGUUAAUAUUAGCAGUGAUGUUGCUAUGUCGUUUUUAUUUAACAGGACCGGGUGAAUAUUUA
B27: Eterna 6150223 (Exclusion NG 3) (ssRNA)
RNA: AUUAUGACCGAGUUAUGCUUCAAAACAUGAGGAUCACCCAUGUAGGAUAUCAGCACGAUAAGUGCUGAGAAGGACAUCUCGGUC
B28: Eterna 6447203 (Exclusion NG 2) (ssRNA)
RNA: AUCAGCUCGUCAGGAUAUACGUAACUGCGUCAGCAGUGUGGUAAGAUCACAUGAGGAUCACCCAUGUAGAAGGGACGAGCUGAU
B29: Eterna 6117498 (Same State NG 2) (ssRNA)
RNA: AAAACAUACCGAGGAUAUUCAUAUAAUAAAUAAACAUGAGGAUCACCCAUUUGGCAAAAGCCUAGGGAGAAGGCGGAAUGCUAA
B30: Eterna 6374082 (Exclusion NG 1) (ssRNA)
RNA: CGGUGACGUGUAGGAUAUGGCGCUGGGUUUUGGCCAGAAGGACAUGAGGAUCACCCAUGUGGUAGAGGGCUGGCGGCCGCCCGU
B31: Eterna 6063240 (Exclusion 4) (ssRNA)
RNA: GUUUCGUCAGGAUAUGUGGCUUCGAUCGUGCGAAGAAGGCUACAGAAGGCACAUGAGGAUCACCCAUGUUCGUC
B32: Eterna 7697025 (Exclusion - Arginine B) (ssRNA)
RNA: UGAUAGGACAGAAGGAGCGGAAGUGAUGUUUCCAAUGGAUAAAAGGUGUCAAAGACACCCUUCCAGGUAGGUCGCUGUCCUAUCU
B33: Eterna 11606 (Exclusion 1) (ssRNA)
RNA: UUUUAACAUGAGGAUCACCCAUGUGAGGAUAUCGAUAUUUUUAUUAAUAUUAAUAAAACGAGAAGGCACAUUUU
B34: Eterna 6454516 (Inverted Same State NG 3) (ssRNA)
RNA: AAACACGGACAUGAGGAUCACCCAUGUGGCGAAAGCCUUGGAAGAAGGCCGAUUGCAAAGCAAUCGGAGGAUAUUCAUACCGUG
B35: Eterna 7673438 (Same State - Arginine B) (ssRNA)
RNA: UGUAUGGACUGAAGGAGCGGGUUGAUAUCAUGAGGAUCACCCAUGGAAAAGGCGAAAGCCGCCCAGGUAGGUCGCAGUCCAUACU
B36: Eterna 7673392 (Same State - Arginine B) (ssRNA)
RNA: UGUAUGGACUGAAGGAGCGGGUUGAUAACCUGAGGAUCAUCCAGGUAAAAGGCGAAAGCCACCCAGGUAGGUCGCAGUCCAUACU
B37: Eterna 7696419 (Exclusion - Arginine B) (ssRNA)
RNA: AAUGUACAGGGAAGGAGCGUAGUCCAGUGAUGUUGGAGUUAAAUACCAGUGAUGUUGGUUAUACAGGUAGGUCGCCCUAAAGUGC
B38: Eterna 6421601 (Exclusion NG 3) (ssRNA)
RNA: GGUACUCAAAGAGUACCAAAACGAACAUGAGGAUCACCCAUGUAGGAUAUGCUACUCAAAGAGUAGCAGAAGGACAUGUGCCUA
B39: Eterna 1023 (Exclusion - FMN A) (ssRNA)
RNA: GUCCAUGUCCUCAUUCGUGCACUGGACACCAAGGAUAUGUUUAUGGACAGAAGGUGGUUGGGUCAGUGAUGUUGAUAUAAUUAGU

The target of the data set is MS2 coat protein, dlFG mutant (Escherichia phage MS2, UniProt P03612, del68-81insG). Put plainly: 4 mM Mg2+; no ligand; RNA-MaP array; 100 mM Tris-HCl pH 7.5, 80 mM KCl, 4 mM MgCl2, 0.1 mg/mL BSA, 1 mM DTT, 0.01 mg/mL yeast tRNA, 0.01% Tween-20; protein 1.5 nM to 3 uM; 37 C (Table S3). Conditions: chain copies: 2; label: tethered by stalled RNA polymerase.
As for B1, the Kd was more than 3000 nM. On to B2, for which the affinity, expressed as Kd, was 190 nM. The same measure for B3: 12.2 nM; for B4: more than 3000 nM. B5 showed a dissociation constant Kd of 5.95 nM. That is a single-digit nanomolar value.

Molecule B6 showed a Kd of 77.6 nM. This Kd is about 13-fold higher than that of the molecule before. The result for B7 reads 463 nM; that for B8, more than 3000 nM; that for B9, more than 3000 nM. The result for B10 reads 51.2 nM; that for B11, 6.05 nM. Molecule AAAACAUGAGGAUCACCCAUGUAAA (ssRNA) [Eterna 1 (MS2 control)] came in with a Kd of 12.8 nM. With B12, the dissociation constant (Kd) was more than 3000 nM. The same measure for B13: more than 3000 nM. The result for B14 reads more than 3000 nM. On to B15, for which the dissociation constant (Kd) came to 92.3 nM. The result for B16 reads 19.2 nM; that for B17, 368 nM; that for B18, more than 3000 nM.

B19 yielded a Kd of 5.01 nM. The result for B20 reads 5.71 nM; that for B21, more than 3000 nM. Regarding B22, the Kd worked out at 166 nM. The result for B23 reads more than 3000 nM.

In turn, B24 yielded an equilibrium dissociation constant (Kd) of 44.9 nM. For B25, the Kd is more than 3000 nM. In turn, B26 showed a Kd of more than 3000 nM. The result for B27 reads 14.7 nM. B28: binding was put at a Kd of 51.7 nM. On to B29, for which the dissociation constant Kd came out at 974 nM. This Kd is about 19-fold higher than that of the molecule before.

As for B30, binding was characterised by a dissociation constant (Kd) of 15.7 nM.

On to B31, for which the Kd came out at 34.2 nM. The same measure for B32: more than 3000 nM; for B33: 68 nM. B34 gave a Kd of 13.8 nM. Consider B35, for which the dissociation constant (Kd) amounted to 20 nM. As for B36, the Kd was 279 nM. For B37, the Kd is more than 3000 nM. The result for B38 reads 18.5 nM. The same measure for B39: more than 3000 nM.

One may read the Kd as the constant that tells how readily two partners part at equilibrium. Low values mean higher affinity, high ones lower affinity.
